Assay results from patent US20260069689A1 (Regeneron, published 2026).

Columns and labels:
[1] = molecular target: T1, SARS-CoV2 Spike ecto foldon Trimer expressed with a C-terminal myc-myc-hexahistidine (SARS-CoV-2, UniProt P0DTC2 14-1213); test: SPR Biacore, mAb captured by anti-hFc, 25C
T1 construct: extracellular domain

[2] = molecular target: T1, SARS-CoV2 Spike ecto foldon Trimer …; test: SPR Biacore, mAb captured by anti-hFc, 37C

| Binder | Kd [1] | koff [1] | kon [1] | t½ [1] | Kd [2] | koff [2] | kon [2] | t½ [2] |
| --- | --- | --- | --- | --- | --- | --- | --- | --- |
| mAb14258 (antibody, V domains shown) VH: QLQLQESGPGLVKPSETLSLICTGSGDSISSSHYYWGWIRQPPGKGLEWIGSTYFSGSTYYNPSLKSRVSISVDTSKNQVSLKLISVTAADTAVYYCAREMGATLGDYWGPGTLVTVSS VL: QSVLTQPPSASGTPGQRVTISCSGSSSNIGNNYVYWYQQFPGTTPRLLIYRNNERPSGVPDRFSGSKSGTSASLVISGLRSEDEADYYCAAWDDSLSAHYVFGTGTKVTVLG | 0.0232 nM | 4.91e-05 s⁻¹ | 2.12e+06 M⁻¹ s⁻¹ | 3.92 h | 0.0776 nM | 7.93e-05 s⁻¹ | 1.02e+06 M⁻¹ s⁻¹ | 2.43 h |
| mAb14315 (antibody, V domains shown) VH: QVQLVQSGAEVKKPGSSVKVSCKASGDTFSTYAINWVRQAPGQGLEWMGRFIHIFGTANYAQKFQGRVTITADESTSTAYMELRSLRSEDTAVYYCARDGVDYGDYRPDYWGQGTLVTVSS VL: EIVLTQSPGTLSLSPGERATLSCRASQSVSSNYLAWYQQKPGQAPRLLIYGASSRATGIPERFSGSGSGTDFTLTISRLEPEDFAVYYCQQYGSSLYTFGQGTKLEIKR | 0.0483 nM | 3.15e-05 s⁻¹ | 652000 M⁻¹ s⁻¹ | 6.1 h | 0.0437 nM | 3.25e-05 s⁻¹ | 743000 M⁻¹ s⁻¹ | 5.93 h |
| mAb14235 (antibody, V domains shown) VH: QITLKESGPTLVKPTQTLTLTCTFSGFSLNTGGVGVGWIRQPPGNALEWLALIYWDDDKRYNPSLKTRLTISKDTSKNQVVLTMTNMDPVDTATYFCAHLTIAVIVDFWGQGTLVTVSS VL: QSALTQPASVSGSPGQSITISCTATSSDVGTYNYVSWFQHHPGKAPKLMIYEVTNRPSGVSNRFSGSKSGNTASLTISGLQAEDEADYYCSSYTTTSIVFGGGTKLTVLG | 0.0474 nM | 3.69e-05 s⁻¹ | 779000 M⁻¹ s⁻¹ | 5.21 h | 0.0517 nM | 3.8e-05 s⁻¹ | 735000 M⁻¹ s⁻¹ | 5.07 h |
| mAb14289 (antibody, V domains shown) VH: QVQLVQSGPEVKKPGASVKVSCKASGYTFTSYAISWVRQAPGQGLEWMGWISAYNGNTNYAQKLQGRVTMTTDTFTSTAYMELRSLRSDDTAVYYCAVPADHITFDYWGQGTLVTVSS VL: EIVLTQSPGTLSLSPGERATLSCRASQSVSSYLAWYQQKPGQAPRLLIHGASSRATGIPDRFSGSGSGTDFTLTISRLEPEDFAVYYCQQYGSSFLTFGGGTKVEIKR | 0.0696 nM | 6.35e-05 s⁻¹ | 912000 M⁻¹ s⁻¹ | 3.03 h | 0.0728 nM | 6.63e-05 s⁻¹ | 911000 M⁻¹ s⁻¹ | 2.91 h |
| mAb14247 (antibody, V domains shown) VH: QITLKESGPTLVKPTQTLTLTCTFSGFSLSTSAVGVGWIRQPPGKALEWLALIYWDDDKRYSPSLKSRLTITKDTSKNQLVLTMTNVDPVDTATYYCAHHTIQLIFDYWGQGTLVTVSS VL: QSALTQPASVSGSPGQSITISCTATSSDVGNYNYVSWYQQHPGKAPKLMIYEVSNRPSGVSNRFSGSKSGNTASLTISGLQAEDEADYYCSSYTSSSTPLVFGGGTKLTVLG | 0.0521 nM | 4.91e-05 s⁻¹ | 944000 M⁻¹ s⁻¹ | 3.92 h | 0.0701 nM | 4.72e-05 s⁻¹ | 674000 M⁻¹ s⁻¹ | 4.08 h |
| mAb14281 (antibody, V domains shown) VH: QVQLVQSGADVKKPGASVKVSCKTSGYIFTGYYIHWVRQAPGQGLEWMGWINPNSGGTNSAQKFQGRVTMTRDTSISTVYMELSRLRSDDTAVYYCAKSNSFSVLDYNFDYWGQGTLVTVSS VL: SSELTQDPAVSVALGQTVRITCQGDSLRSYYASWYQQKPGQAPVLVIYDKNNRPSGIPDRFSGSSSGNTASLTITGAQAEDEADYYCNSRDSSRNHLVVFGGGTKLTVLG | 0.097 nM | 8.09e-05 s⁻¹ | 834000 M⁻¹ s⁻¹ | 2.38 h | 0.139 nM | 0.000116 s⁻¹ | 834000 M⁻¹ s⁻¹ | 1.66 h |
| mAb14255 (antibody, V domains shown) VH: QVQLQESGPGLVKPSETLSLTCTVSGGSISGYYWSWIRQPPGKGLDWIGYIYYRGNTNYNPSLKSRVTISVDTSNNQFSLKLSSVTAADTAVYYCARYGEGYGDASGYHFDYWGQGTLVTVSS VL: QSALTQPASVSGSPGQSITISCTGTSSDVGSYNLVSWYQQHPGKAPKLMIYEDSKRPSGVANPFSGSKSGNTASLTISGLQAEDEADYYCSSYAGSSTWVFGGGTKLTVLG | 0.0706 nM | 0.000138 s⁻¹ | 1.96e+06 M⁻¹ s⁻¹ | 1.39 h | 0.155 nM | 0.000161 s⁻¹ | 1.03e+06 M⁻¹ s⁻¹ | 1.2 h |
| mAb14313 (antibody, V domains shown) VH: EVQLVESGGGLVQPGRSLRLSCVASGFTFDDSAMHWVRQPPGKGLEWVSGISWNSGIIGYAESVKGRFIISRDNAKNSLFLHMRGLRPEDTAVYYCARDRLELSYYYYGMDVWGQGTTVTVSS VL: not shown | 0.0565 nM | 0.000113 s⁻¹ | 2e+06 M⁻¹ s⁻¹ | 1.7 h | 0.0984 nM | 9.94e-05 s⁻¹ | 1.01e+06 M⁻¹ s⁻¹ | 1.94 h |
| mAb14257 (antibody, V domains shown) VH: EVQLVESGGGLVQPGGSLRLSCAASGFTVSRSYMNWVRQAPGKGLEWVSVVFTGGTTKHTDSVKGRFTISRDNSMNTLYLQMNSLRPEDTAVYYCARVAIVETTGAFDIWGQGTMVTVSS VL: QSVLTQPPSVSGAPGQRVTISCTGTSSNIGADFDVHWYQQFPGTAPKLLIYGHTNRPSGIPDRFSGSKSGTSASLAITGLQAEDEADYYCQSYDSSLSGSVVFGGGTKLTVLG | 0.0434 nM | 0.000107 s⁻¹ | 2.45e+06 M⁻¹ s⁻¹ | 1.81 h | 0.141 nM | 0.000165 s⁻¹ | 1.17e+06 M⁻¹ s⁻¹ | 1.17 h |
| mAb13458 (antibody, V domains shown) VH: EVQLVESGGGLVQPGRSLRLSCAASGFTFDDYAMHWVRQAPGKGLEWVSGISWNSGSIGYADSVKGRFTISRDNAKNSLYLQMNSLRAEDTALYYCAKDIGITTPYWGQGTLVTVSS VL: AIQMTQSPSSLSASVGDRVTITCRASQDIRNDLGWYQQKPGKAPKLLIYSASSLQTGVPSRFSGSGSGTDFTLTISSLHPEDFATYYCLQDYWYTWTFGQGTKVEIKR | 0.0351 nM | 4.26e-05 s⁻¹ | 1.21e+06 M⁻¹ s⁻¹ | 4.52 h | 0.05 nM | 4.08e-05 s⁻¹ | 815000 M⁻¹ s⁻¹ | 4.72 h |
| mAb13457 (antibody, V domains shown) VH: EVQLVESGGGLVQPGRSLRLSCAASGFTFDDYAMHWVRQAPGKGLEWVSGISWNSGSIGYADSVKGRFTISRDNAKNSLYLQMNSLRAEDTALYYCAKDIGITTPYWGQGTLVTVSS VL: AIQMTQSPSSLSASVGDRVTITCRASQDIRNDLGWYQQKPGKAPKLLIYSASSLQTGVPSRFSGSGSGTDFTLTISSLHPEDFATYYCLQDYDYTWTFGQGTKVEIKR | 0.0718 nM | – | – | 3.49 h | 0.0779 nM | – | – | 3.22 h |
| mAb13459 (antibody, V domains shown) VH: EVQLVESGGGLVQPGRSLRLSCAASGFTFDDYAMHWVRQAPGKGLEWVSGISWNSGSIGYADSVKGRFTISRDNAKNSLYLQMNSLRAEDTALYYCAKDIGITTPYWGQGTLVTVSS VL: AIQMTQSPSSLSASVGDRVTITCRASQDIRNDLGWYQQKPGKAPKLLIYSASSLQTGVPSRFSGSGSGTDFTLTISSLHPEDFATYYCLQDYNYVWTFGQGTKVEIKR | 0.0389 nM | 5.46e-05 s⁻¹ | 1.41e+06 M⁻¹ s⁻¹ | 3.52 h | 0.0599 nM | 4.76e-05 s⁻¹ | 794000 M⁻¹ s⁻¹ | 4.05 h |
| mAb14283 (antibody, V domains shown) VH: QVQLQESGPGLVKPSGTLSLTCDVSGGSISSNNWWSWVRQRPGKGLQWIGEIYHNENTNYNPSLKSRVIMSIDKSKNQFSLKLTSVTAADTAVYYCARGDVLDWFDPWGQGTLVTVSS VL: QSALTQPASVSGSPGQSTTISCTGTSSDVGGYNYVSWYQQYPGKAPKLMIYDVTNRPSGVSHRFSGSKSGNTASLTISGLQAEDEADYYCSSYTSSSTVIFGGGTKLTVLG | 0.0539 nM | 8.66e-05 s⁻¹ | 1.61e+06 M⁻¹ s⁻¹ | 2.22 h | 0.0847 nM | 7.32e-05 s⁻¹ | 865000 M⁻¹ s⁻¹ | 2.63 h |
| mAb14286 (antibody, V domains shown) VH: QVQLVQSGAEVKKPGASVKVSCKASGYTFTDYFIHWVRQAPGQGLEWMGWINPTSGGTNYAQKFRGRVTMTRDTSISTAYVELSRLRSDDTALYYCARDLPFYSDTKQFDYWGQGTLVTVSS VL: QSALTQPASVSGYPGQSITISCTGTSSDVGGYNYVSWYQQHPGKAPKLMIFDVSNRPSGVSNRFSGSKSGNTASLTFSGLQAEDEADYYCSSYTSSSTLVFGGGTKLTVLG | 0.0331 nM | 8.71e-05 s⁻¹ | 2.63e+06 M⁻¹ s⁻¹ | 2.21 h | 0.0544 nM | 0.000141 s⁻¹ | 2.59e+06 M⁻¹ s⁻¹ | 1.37 h |
| mAb14282 (antibody, V domains shown) VH: QVQLVQSGAEVKKPGASVKVSCKASGYIFTDHYMHWVRQAPGQGLEWMGWINPNSGATNYAQNFQGRVTMTRDTSIITVYMELSRLRSDDTAVYYCARDSSPYMIRYTMDVWGQGTTITVSS VL: QSALTQPASVSGSPGQSITISCTGTSSDVGSYNLVSWYQQHPGKAPKLMIYELTKRPSGVSNRFSGSKSGNTASLTISGLQAEDEADYYCSSYRGSVTDVVFGGGTKLTVLG | 0.0624 nM | 0.000133 s⁻¹ | 2.14e+06 M⁻¹ s⁻¹ | 1.44 h | 0.162 nM | 0.000171 s⁻¹ | 1.05e+06 M⁻¹ s⁻¹ | 1.13 h |
| mAb14294 (antibody, V domains shown) VH: EVQLVESGGGLVQPGGSLRLSCAASGFTFSNHWMDWVRQAPGKGLVWVSRINSDGSSTDYADSVRGRFTMSRDNAKNTLYLQMSSLRAEDTAVYYCAREGMIFGAVIIPGWYFDLWGRGALVTVSS VL: EIVLTQSPGTLSLSPGERATLSCRASQSVSSSQLAWYQQKPGQAPRLLIYGASSRATGIPDRFSGSGSGTDFTLTISRLEPEDFAVYYCQQYDSFGQGTKLEIKR | 0.0329 nM | 2.29e-05 s⁻¹ | 697000 M⁻¹ s⁻¹ | 8.39 h | 0.033 nM | 2.29e-05 s⁻¹ | 694000 M⁻¹ s⁻¹ | 8.4 h |
